Assay results reported in article PMC6471214.

What was measured:
Biotinylated tubulin [1] = biological target: Biotinylated tubulin (UniProt P02550); assay: LSPR (extinction maximum wavelength of gold nanoparticles) + fluorescence microscopy; long MT sample: as the short MT sample, then 10 volumes of 4 µM tubulin (4% Rhodamine-labeled) with 0.5 mM GMPCPP added, 20 more min at 37 °C before paclitaxel
Biotinylated tubulin [2] = biological target: Biotinylated tubulin (UniProt P02550); assay: LSPR (extinction maximum wavelength of gold nanoparticles) + fluorescence microscopy; short MT sample: biotinylated tubulin (7% of the tubulin mix, with 4% Rhodamine-labeled tubulin) held on 80 nm biotin-PEG AuNPs through neutravidin; BRB80 pH 6.8, 0.025% Tween 20; GMPCPP, 37 °C for 30 min; stabilised with 10 µM paclitaxel; spectra at room temperature

In the case of “Porcine tubulin (α/β-tubulin heterodimer subunits) (from UniProt P02550 1-451; P02554 1-445) (complex)”, the λmax (LSPR extinction maximum wavelength) (Biotinylated tubulin [1]) is reported as 553 nm and the λmax (LSPR extinction maximum wavelength) (Biotinylated tubulin [2]) is reported as 553 nm.
